Measured values reported in publication PMC6408466, “Inner lumen proteins stabilize doublet microtubules in cilia and flagella” (Nature Communications, 2019).

Target: T1, FAP45 (flagellar-associated protein 45) (Chlamydomonas (endogenous in wild type …, UniProt A8I9E8 1-501))
T1 construct: FAP45 of Chlamydomonas, a coiled-coil protein of 501 amino acids, predicted ~59 kDa; endogenous protein in the axoneme; also called FAP45/CCDC19; MIP3c; source: endogenous, isolated wild type Chlamydomonas axonemes
T1 sequence (looked up): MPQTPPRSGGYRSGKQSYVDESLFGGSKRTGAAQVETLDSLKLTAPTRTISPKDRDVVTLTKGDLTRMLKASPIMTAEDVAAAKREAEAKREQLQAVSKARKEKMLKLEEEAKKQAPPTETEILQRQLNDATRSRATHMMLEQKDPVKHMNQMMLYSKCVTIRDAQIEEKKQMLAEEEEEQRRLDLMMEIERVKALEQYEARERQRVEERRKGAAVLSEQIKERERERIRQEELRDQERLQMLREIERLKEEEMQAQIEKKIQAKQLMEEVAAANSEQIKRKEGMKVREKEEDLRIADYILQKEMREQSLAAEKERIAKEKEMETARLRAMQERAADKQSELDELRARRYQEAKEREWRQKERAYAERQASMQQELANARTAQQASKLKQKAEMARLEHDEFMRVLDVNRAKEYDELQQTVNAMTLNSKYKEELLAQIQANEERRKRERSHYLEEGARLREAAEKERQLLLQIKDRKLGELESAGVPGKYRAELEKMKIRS
Experiment: cross-linking; EDC-crosslinked wild type axonemes solubilized, crosslinked products immunoprecipitated with anti-FAP45 antibody, LC tandem MS of the precipitates
Settings: partners not purified

- stoichiometry N: 1
B1: FAP52 (flagellar-associated protein 52) (natural protein, UniProt A8ILK1 1-615, looked up)
chain: MAEPLVLNSVIGFGGAIENGLIAHPDGRTIIYPLGSTIVLRDRADPRSQEFLQGHSDKVSCLALSRSGRYLASGQITYMGFTADIIIWDLESKQLIHRMALHKVKVQALDFSCDERFLASLGGQDDNALVLWDVASGNAICGSPCNTNFTNCVKFFNNSPDKLITAGNFNMNVWTYDAGNNKLRPTDATLGTLKRVFKSVVVDANDEYAYCGTTTGDVLQIALERVLFKNTGPAKGNVQMGVTATCEVPTGDILVGGGDGSLQLLRKMPALAGTKVEGAITSIALADMNARGFTFFVGTAMCNIYKPATSRLKEELVQTAHNDKINGMAFPNEYSEVFATCGTGFIRLWHLTTCRELLRIAVPNLECFCIAFTTDGSAILSGWSDGKIRAFGPQSGKIIFTINDAHQKAVTAIASTADSSRILSGGEEGMVRVWRIGRTSQTLEASMKDHKGPVNCIRIKGSGDECVSASSDGSCILWDLHTFKRRTSLFANTFFKSVVYHPDESQLVTAGTDRKVTYWDAYDGNAIRIIDGSDLDEVNALAVDRDGEALVSGGGDKLVKLWGYDEGHCYFVGVAHSGAITAVGVTPDKQRIVSVGTEGGIFIWDYQRPQTLADI
notes: FAP52 of Chlamydomonas, ortholog of human WDR16, ~66 kDa, WD40 repeat protein; endogenous protein in the axoneme; also called FAP52/WDR16; MIP3a; source: endogenous, isolated wild type Chlamydomonas axonemes
